B1: histidine-tagged CsgB of E. coli (natural protein, E. coli K12, UniProt P0ABK7 22-151, looked up)
chain: AGYDLANSEYNFAVNELSKSSFNQAAIIGQAGTNNSAQLRQGGSKLLAVVAQEGSSNRAKIDQTGDYNLAYIDQAGSANDASISQGAYGNTAMIIQKGSGNKANITQYGTQKTAIVVQRQSQMAIRVTQR
notes: CsgB (curli minor subunit), E. coli K12, UniProt P0ABK7; Expressed from a pET11a plasmid; the construct is not described further; source: E. coli BL21-DE3 slyD KO, purified (nickel-nitrilotriacetic acid beads, from 7.5 M guanidine hydrochloride)
B2: FapB from the P. aeruginosa PAO1 strain with an N-terminal histidine tag (natural protein)
chain: DPLASRNRASIDDSGTYRGNFALNQAAGDAQQQSNVRVVAVGSAALVGSDQRQHLQLDASQPIAASASISGAALRGSGILGVNQGAGLGNQQINAFRLSLSNGPESLDDSVLAQSVALTKVSGSATPVPGGRSVSTDDRAFAGSSGVVQVNQSAGVGNQSMNTLSVRVME
notes: FapB, Pseudomonas aeruginosa PAO1, UniProt Q9I2E9; Used as fresh monomers, as fibrils and as sonicated fibril seeds; also called FapB-NterHis; histidine-tagged FapB; source: E. coli BL-21, purified (HisPur cobalt resin, lysis in 6 M guanidinium HCl)
B3: FapB (N-terminal histidine tag) labeled with Cyanine3 (natural protein)
chain: B2 chain
modifications: Cyanine3 attached by NHS ester to lysine residues (primary amines)
notes: FapB, Pseudomonas aeruginosa PAO1, UniProt Q9I2E9, 170 residues without the signal peptide; same chain as m1; also called FapB labeled with Cyanine3; labeled FapB; source: E. coli BL-21, labeled on HisPur cobalt resin with Cyanine3 NHS ester, eluted and desalted
B4: FapC from the P. aeruginosa PAO1 strain with a C-terminal histidine tag (natural protein)
chain: MGNEGGWHPPKPNPQSNNKGGATALVVDTQQNYNNKVSNFGTLNNASVSGSIKDASGNVGVNVAAGDNNQQANAAALASADASFVFGTATASTSVLQSGYGNTLNNYSNPNTASLSNSANNVSGNLGVNVAAGNFNQQKNDLAAAVSNGQYSTAGSAASQTSTGNTTVNSANYAYGGTYVSLKLNADGSYKGTSDQIGDVYLDTWEGQTHPGGSNTGHIDVDSQAQGAKDLNHDGGAFAFKEKGDVDLKGTVSGFIPAIVGFKTPVTNNASLSNSLQNVSGNVGVNIAAGGGNQQSNSLSIAAGCSSCPAGGESLGF
notes: Used as fresh monomers, as fibrils and as sonicated fibril seeds; also called FapC-CterHis; histidine-tagged FapC; source: E. coli BL-21, purified (HisPur cobalt resin, lysis in 6 M guanidinium HCl)
B5: FapC (C-terminal histidine tag) labeled with Cyanine5 (natural protein)
chain: B4 chain
modifications: Cyanine5 attached by NHS ester to lysine residues (primary amines)
notes: FapC, Pseudomonas aeruginosa PAO1, UniProt Q9I2F0, without its signal peptide; same chain as m2; also called FapC labeled with Cyanine5; labeled FapC; source: E. coli BL-21, labeled on HisPur cobalt resin with Cyanine5 NHS ester, eluted and desalted
B6: FapC from the P. aeruginosa PAO1 strain with an N-terminal histidine tag (natural protein)
chain: GNEGGWHPPKPNPQSNNKGGATALVVDTQQNYNNKVSNFGTLNNASVSGSIKDASGNVGVNVAAGDNNQQANAAALASADASFVFGTATASTSVLQSGYGNTLNNYSNPNTASLSNSANNVSGNLGVNVAAGNFNQQKNDLAAAVSNGQYSTAGSAASQTSTGNTTVNSANYAYGGTYVSLKLNADGSYKGTSDQIGDVYLDTWEGQTHPGGSNTGHIDVDSQAQGAKDLNHDGGAFAFKEKGDVDLKGTVSGFIPAIVGFKTPVTNNASLSNSLQNVSGNVGVNIAAGGGNQQSNSLSIAAGCSSCPAGGESLGF
notes: FapC, Pseudomonas aeruginosa PAO1, UniProt Q9I2F0; cloned into pET28b with the histidine tag at the N-terminal site; This construct probably holds the same stretch without the signal peptide; also called FapC with histidine tag at the N-terminus; source: E. coli BL-21, purified (HisPur cobalt resin, lysis in 6 M guanidinium HCl); not shown: His tag, N-terminal, kept

Data set [1] deals with the molecule itself. As to the kind of experiment: fibril formation, pelleting and formic acid dissolution with SDS-PAGE; 30 uM protein, 37 °C, 48 h, incubated individually; fibrils washed by centrifugation at 13,000g, sonicated and treated with formic acid.
Data set [2] concerns the molecule itself. As to the kind of experiment: thioflavin T fibrillation kinetics + transmission electron microscopy; each protein alone, 25, 50 or 100 uM, universal buffer (Tris, Bis-Tris, sodium acetate) pH 4-9, 20 uM ThT, 37 °C, orbital shaking 300 rpm; fibrils seen by TEM after 80 h; self-assembly into amyloid fibrils.
Data set [3] addresses B5. As to the kind of experiment: fluorescence microscopy of labeled purified proteins (colocalisation of monomers with preformed fibrils); Cyanine3-FapB and Cyanine5-FapC; monomers (0 h incubation) mixed with preformed fibrils (72 h incubation) of the other protein; imaged immediately after mixing and after 24 h; Leica DMI8, 20x. Conditions: both partners purified.
Data set [4] deals with the molecule itself. As to the kind of experiment: transmission electron microscopy of fibrils; fluorophore-labeled FapB and FapC, negative staining with 1% uranyl acetate.
Data set [5] addresses B2. As to the kind of experiment: cell-based or functional assay.

With B1, in data set [1], the binding result was “binds”.

For the molecule B2, the binding result in data set [2] is on record as “binds”.

Take B3: the binding result in data set [3] and in data set [4] was “binds” in each case.

Turning to B4, the binding result in data set [2] is “binds”. Also, in data set [5], the “residual FapB monomer on SDS-PAGE after 9 days of coincubation 1:1 with FapC at pH 5, without formic acid, relative to untreated monomers (9% for FapB alone)” value was determined as 52%.

Consider B5, for which, in data set [4], the binding result is reported as “binds”.

B6: the binding result in data set [2] is given as “binds”.

The values above are taken from paper PMC11787515, “Resilience and charge-dependent fibrillation of functional amyloid: Interactions of Pseudomonas biofilm-associated FapB and FapC amyloids” (The Journal of Biological Chemistry, 2024).
